Experimental data taken from the RNAGym collection of RNA variant scans (doi:10.1073/pnas.2313332121).

B1: TPR t1 (parent)
chain: GACCAAUCUGCCCUCAGAGCUCGAGAACAUCUUCGGAUGCAGAGGAGGCAGGCUUCGGUGGCGCGAUAGCGCCAACGUCCUCAACCUCCAAUGCAUCCCACCACAUGAUGAUGCCUGAAGAGCCUUGGUUUUUUG

Variants of: B1
Test: polymerase ribozyme fitness, log enrichment relative to wild type (log ratio); higher = more active; in vitro selection for triplet polymerase activity
In short: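 Both subunits of a heterodimeric triplet polymerase ribozyme were given their own mutant library, built by PCR and transcribed. Each library was annealed with a biotinylated primer, the partner subunit and triplets, incubated frozen at −7 °C, and its extended constructs gel-excised, captured on streptavidin beads and amplified by RT-PCR, all in one round done in triplicate. Fitness is the logarithm of genotype enrichment relative to wild-type enrichment, with replicates averaged by inverse-variance weighting. That logarithm is base 2, and Illumina-sequenced genotypes needed ≥10 input reads and ≥1 read per output.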

Variant | polymerase ribozyme fitness (log ratio)
C34A G39U C73G C98A | -4.33
C34U G113A C115A U132A | -6.07
U32G C70G C98G | -6.14
U32C U54C G71C A95C | -3.01
C34U C102U C124A | -0.815
G36C C64U G93A A100C | -3.67
C34U C49G C53G A75G C88A C104A U112A | -5.7
U32C C97A C124U U131A | -4.33
U32C G44U U92G A118U U133A | -3.79
C34A A121U | -0.134
U32C U33A C104A U109G C114U A121U G122C | -5.8
C34U A50U C73U C115A A119G | -4.5
C34U G110A | -4.68
U33A A46C G61A | -5.04
G35U G36U C124U | -5.29
U32C G61U C85G | -3.56
U33A A46U | -4.71
U32C C72G G117U U134G | -1.41
C34U G122A | -4.6
G36A C49A C56G C80A A90G | -4.92
U33C U132A | -4.81
G36C G44A A74U C79G C101U | -4.54
G36C C72A C94A C104U | -3.64
U32G A37U C73U G113A | -6.09

Variant | polymerase ribozyme fitness (log ratio)
C34U G63C A100U A111C | -5.4
U32G C115A | -5.41
G36A G107A C124A | -7.46
U33G C104U | -5.5
G36A U59C U126G | -2.55
U33G G61A A121U G127U U133A | -3.67
G35U A90C C97G A121C | -7.34
C31U G63U G107A | -2.29
C34A G71A U78C C94U U125A | -5.82
G36A G127C | -1.81
G36C A50C C114U | -6.09
G36C G45C | -2.04
U32A U38C G69C A95U | -6.24
C34U A84G C89G | -6.47
G35C A50G C53G U67G C124A G135U | -6.69
U32A C72U | -5
U32A C72G | -3.95
U33G G61A C80G A91C U92A C101U C115G | -8.32
G35C G45U G61A A121G | -3.1
C34G C73U C104G U116C A121C G122U | -6.01
C34A G58A | -2.81
C34U G93A | -3.87
G35A G51A G60U C124U | -6.94
C34G G47U U55G G61C G63C C80U | -7.69

Variant | polymerase ribozyme fitness (log ratio)
G36A G45C A83G C101G | -2.84
G35C C114U | -5.79
G35A G44U C115A C124G | -2.88
G36A C49U C64U C86G U92C | -6.86
U32C A46U G63C C104A G117C | -6.2
C34G U67C A103G G107C U116C C123G | -7.28
U33G C76G C88A C115U | -6.6
G35A C72G A105C U109G U116G A121G | -6.34
G36A G47A G61U | -1.37
C34U A84U U131G | -5.95
C34G G117C C124A | -6.44
G35A G48C C56A C123G | -2.99
G36A G113U A119U | -4.19
U33G U59G G110A | -5.54
G36A C72G G110U | -4.37
C34A G61U U112G C123A | -4.54
C34A A50U C53U A121C | -4.91
C34A C72U G110U | -6.56
U32A A43C G63C | -6.22
C34A G71U | -2.95
C34A G117U | -6.2
U32C G63C | -0.346
G35C A95U C99U C104A A111C | -6.57
C34G G36A U96A C124U | -6.45

Variant | polymerase ribozyme fitness (log ratio)
G36C A37G C79A | -2.53
U33C G39U | -5.33
C34U C53G A66U C124A | -6.48
U32C C72A C82A A83U | -0.635
C34U C70G | -5.34
U32A G44A C94A C99G G120U | -7.6
G36A G42C A84U U106A G110C C123U G128A | -7.57
G35C G52U C53G A90G C98U | -6.7
U33C G60A | -4.87
C34A C70A | -4.06
U32G A119G | -5.95
U33A C79U C94A C104U G120A | -4.61
U32C U112A | 1.49
U32C G71U | -1.13
U32C G42U | -2.17
C34U C72A C123A | -5.4
G35U A121G | -3.56
G36A U55G C115A | -1.03
C34A A100G | -5.07
G35U C79A | -6.66
C31U U81C G120U | -6.22
C31U G110A | -4.35
U32C G61A U67G C82U | -7.29
U32C G42C C123G | 1.74

Variant | polymerase ribozyme fitness (log ratio)
U32C G63A A74U | -3.86
U33G G39C G110U | -6.35
C34A G77U C98A | -2.63
C34A C72U U116G | -5.21
C34A C102U | -1.64
U32A A121U U133A | -1.22
G35A G48A G71A C89A C99A C101U | -7.55
C34A G60C U112G U130A U133A | -4.54
U32C A100C | -1.02
C34G C124U | -4.28
C34G C124A | -3.61
G36A G42A A74G G127C | -3.95
U32A U59C | -3.8
G36A C72G G117A | -3.71
U33A U59A G61U U106G | -5.96
G36A A37G A111G G113C A121C | -5.88
C34A G45U | -4.49
C34U C88U | -4.26
G35A A108U G120C | -5.76
C34A G60C A100G | -5.76
C34A C98U G122U | -2.46
C34A G42A G61A G117C U131C | -7.25
C34A C82A | -2.72
G36A C49A C56U | -0.697

Variant | polymerase ribozyme fitness (log ratio)
U33G G52C U78A C98A U112G U116G | -7.02
C34A C40U A41U C101A C114A G120A | -6.72
U32C G36A U92A A105U C123A C124G | -5.91
C34G A43U G60C C82A A100U C114U U130C U132A U134C | -5.7
C34U C70G C72U | -7.09
G36A C72U | -1.29
G36A C64U C88U C101G | -1.84
C34U G63C | -3.94
C34A C56A C104U | -2.11
G35U C53U C124G | -4.66
G36A G45U U59A C72G C97G C98U C102A A111G | -6.75
C34A U87A A90G | -2.87
G35C A43G G60A C62U C64G A84U C98U A111U A121U | -7.98
G36C A37C A41G G61U | -4.4
G36A G61U U96G | -1.71
G36C G39C C62U C124G U130G | -1.27
C34A C123G | -0.401
C34A C123U | -1.54
G36A G63A C94U U132A | -1.7
G35A C99A C123A | -6.8
G36A G42U | -2.99
C34U G48U | -4.63
G35C C72U C114U | -6.13
C34G U54G G69U | -5.25

Variant | polymerase ribozyme fitness (log ratio)
G36C A37U G48C A91U C115U | -4.92
U32C G44A G61U U131G | -0.948
C34A A46U A75G C102U A111G | -3.22
U33C G69U | -1.74
G35U G63U C72U | -7.14
G36C C49A C53A G61C C76U A119G | -6.33
C34A A95U | -3.54
U32G C49A C70U A74G A83G G93C C114A U125G | -7.4
C34A A46G U54G | -2.69
C34U C62U | -5.32
C34U U112A G122A | -5.94
U32G A68U C80A C101U A111U U126G | -6.67
C34G C73A U116A A121U | -4.42
C34A A37U G69C G120A | -5.05
G35C G36A G51C C123G | -6.59
G35A G120C | -2.79
G36C G47U U55G G61U C101U U132A | -3.11
C34A C40A C49G G77A U112A C115G | -7.22
C34G C49U C97U C114G | -7.24
G35A A66C G117U | -5.98
U32C G60C A75C C79G A118U | -1.88
G36C C72G C102A | -4.94
C34A U78C C88U | -1.84
